{"source": "paper PMC11667970", "about": "“Mycobacterium tuberculosis Mce3R TetR-like Repressor Forms an Asymmetric Four-Helix Bundle and Binds a Nonpalindrome Sequence†” (ACS Chemical Biology, 2024)", "key": {"[1]": {"molecular_target": "the molecule itself", "assay": "SEC"}, "[2]": {"molecular_target": "T1, Mce3R (Mycobacterium tuberculosis H37Rv, UniProt P95251 1-406)", "T1 sequence": "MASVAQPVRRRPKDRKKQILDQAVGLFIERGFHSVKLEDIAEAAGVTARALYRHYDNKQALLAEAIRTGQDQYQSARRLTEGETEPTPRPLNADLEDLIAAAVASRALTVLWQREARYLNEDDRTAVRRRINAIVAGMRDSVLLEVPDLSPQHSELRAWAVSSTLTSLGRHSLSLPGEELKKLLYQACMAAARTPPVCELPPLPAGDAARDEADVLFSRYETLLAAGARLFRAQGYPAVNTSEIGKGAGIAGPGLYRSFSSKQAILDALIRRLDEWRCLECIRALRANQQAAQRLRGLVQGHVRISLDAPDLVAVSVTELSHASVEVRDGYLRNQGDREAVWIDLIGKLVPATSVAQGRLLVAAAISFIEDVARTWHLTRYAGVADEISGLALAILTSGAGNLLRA", "assay": "EMSA; 10 nM DNA, 0-128 nM protein", "settings": "protein: recombinant; tags: MBP-His6 N-terminal, removed with TEV; chain copies: 2; label: 5'-Cy3 (forward strand); blunt"}, "[3]": {"molecular_target": "T1, Mce3R", "assay": "EMSA", "settings": "protein: recombinant; tags: MBP-His6 N-terminal, removed with TEV; chain copies: 2; label: 5'-Cy3; blunt"}, "[4]": {"molecular_target": "T1, Mce3R", "assay": "EMSA; up to 128 nM Mce3R, 1 ug poly(dI-dC)", "settings": "protein: recombinant; tags: MBP-His6 N-terminal, removed with TEV; chain copies: 2; label: 5'-Cy3 (forward strand); blunt"}}, "data": [{"binder": "Mce3R (Rv1963c), full-length TetR-like repressor of Mycobacterium tuberculosis (natural protein, Mce3R (Rv1963c), Mycobacterium tuberculosis H37Rv, full length; calculated MW 44.3 kDa; also called M1M2 TFR; wild-type Mce3R; not shown: MBP, N-terminal, cleaved; His6, N-terminal, cleaved) MASVAQPVRRRPKDRKKQILDQAVGLFIERGFHSVKLEDIAEAAGVTARALYRHYDNKQALLAEAIRTGQDQYQSARRLTEGETEPTPRPLNADLEDLIAAAVASRALTVLWQREARYLNEDDRTAVRRRINAIVAGMRDSVLLEVPDLSPQHSELRAWAVSSTLTSLGRHSLSLPGEELKKLLYQACMAAARTPPVCELPPLPAGDAARDEADVLFSRYETLLAAGARLFRAQGYPAVNTSEIGKGAGIAGPGLYRSFSSKQAILDALIRRLDEWRCLECIRALRANQQAAQRLRGLVQGHVRISLDAPDLVAVSVTELSHASVEVRDGYLRNQGDREAVWIDLIGKLVPATSVAQGRLLVAAAISFIEDVARTWHLTRYAGVADEISGLALAILTSGAGNLLRA", "values": [{"measurement": "stoichiometry N", "setting": "[1]", "result": 2}]}, {"binder": "Probe A (dsDNA) DNA 1: GCCCCGCGCTATAGGATACTAGCAAGATACATCATAGCCAATATATGCCAGTTTGCATTGCTATTTACCGATCAGTTGTCCAAGCAATCGCGTATTGGCTATGGACATCAGCGGTTCTGCCGC DNA 2: GCGGCAGAACCGCTGATGTCCATAGCCAATACGCGATTGCTTGGACAACTGATCGGTAAATAGCAATGCAAACTGGCATATATTGGCTATGATGTATCTTGCTAGTATCCTATAGCGCGGGGC", "values": [{"measurement": "Kd", "setting": "[2]", "result": "2.4 ± 0.7", "unit": "nM"}]}, {"binder": "Probe C (dsDNA) DNA 1: TAGCCAATATATGCCAGTTTGCATTGCTATTTACCGATCAGTTGTCCAAGCAATCGCGTATTGGCTATGGACATCAGCGGTTCTGCCGC DNA 2: GCGGCAGAACCGCTGATGTCCATAGCCAATACGCGATTGCTTGGACAACTGATCGGTAAATAGCAATGCAAACTGGCATATATTGGCTA", "values": [{"measurement": "binding result", "setting": "[3]", "result": "binds"}]}, {"binder": "Probe A* (dsDNA) DNA 1: CTACAAGTGCTGGAGGTCAAATCCCGCATCAACATAGCCAATATATGCCAGTTTGCATTGCTATTTACCGATCAGTTGTCCAAGCAATCGCGTATTGGCTATGGACATCAGCGGTTCTGCCGC DNA 2: GCGGCAGAACCGCTGATGTCCATAGCCAATACGCGATTGCTTGGACAACTGATCGGTAAATAGCAATGCAAACTGGCATATATTGGCTATGTTGATGCGGGATTTGACCTCCAGCACTTGTAG", "values": [{"measurement": "Kd", "setting": "[2]", "result": "59 ± 10", "unit": "nM"}]}, {"binder": "Probe A' (dsDNA) DNA 1: CCAGTGCGACCTAACCAAGGACCTACAGATTCTGTCCGTGAGAGAATCGTGTTGGCCTCAGAAGACGGTCGCAAGTTCTCTTTATGACCTGCTAAACTTGAGCCTATATTAGTTATCGCACCT DNA 2: AGGTGCGATAACTAATATAGGCTCAAGTTTAGCAGGTCATAAAGAGAACTTGCGACCGTCTTCTGAGGCCAACACGATTCTCTCACGGACAGAATCTGTAGGTCCTTGGTTAGGTCGCACTGG", "values": [{"measurement": "binding result", "setting": "[4]", "result": "no binding"}]}]}
